Data as given in patent US20060172941A1 (published 2006).

Molecular target: VEGF receptor on endothelial cells
Experiment: inhibition of radiolabeled VEGF binding to its receptor on endothelial cells; peptide concentration varied

Chain of VEGF receptor on endothelial cells (chain, as listed by the source): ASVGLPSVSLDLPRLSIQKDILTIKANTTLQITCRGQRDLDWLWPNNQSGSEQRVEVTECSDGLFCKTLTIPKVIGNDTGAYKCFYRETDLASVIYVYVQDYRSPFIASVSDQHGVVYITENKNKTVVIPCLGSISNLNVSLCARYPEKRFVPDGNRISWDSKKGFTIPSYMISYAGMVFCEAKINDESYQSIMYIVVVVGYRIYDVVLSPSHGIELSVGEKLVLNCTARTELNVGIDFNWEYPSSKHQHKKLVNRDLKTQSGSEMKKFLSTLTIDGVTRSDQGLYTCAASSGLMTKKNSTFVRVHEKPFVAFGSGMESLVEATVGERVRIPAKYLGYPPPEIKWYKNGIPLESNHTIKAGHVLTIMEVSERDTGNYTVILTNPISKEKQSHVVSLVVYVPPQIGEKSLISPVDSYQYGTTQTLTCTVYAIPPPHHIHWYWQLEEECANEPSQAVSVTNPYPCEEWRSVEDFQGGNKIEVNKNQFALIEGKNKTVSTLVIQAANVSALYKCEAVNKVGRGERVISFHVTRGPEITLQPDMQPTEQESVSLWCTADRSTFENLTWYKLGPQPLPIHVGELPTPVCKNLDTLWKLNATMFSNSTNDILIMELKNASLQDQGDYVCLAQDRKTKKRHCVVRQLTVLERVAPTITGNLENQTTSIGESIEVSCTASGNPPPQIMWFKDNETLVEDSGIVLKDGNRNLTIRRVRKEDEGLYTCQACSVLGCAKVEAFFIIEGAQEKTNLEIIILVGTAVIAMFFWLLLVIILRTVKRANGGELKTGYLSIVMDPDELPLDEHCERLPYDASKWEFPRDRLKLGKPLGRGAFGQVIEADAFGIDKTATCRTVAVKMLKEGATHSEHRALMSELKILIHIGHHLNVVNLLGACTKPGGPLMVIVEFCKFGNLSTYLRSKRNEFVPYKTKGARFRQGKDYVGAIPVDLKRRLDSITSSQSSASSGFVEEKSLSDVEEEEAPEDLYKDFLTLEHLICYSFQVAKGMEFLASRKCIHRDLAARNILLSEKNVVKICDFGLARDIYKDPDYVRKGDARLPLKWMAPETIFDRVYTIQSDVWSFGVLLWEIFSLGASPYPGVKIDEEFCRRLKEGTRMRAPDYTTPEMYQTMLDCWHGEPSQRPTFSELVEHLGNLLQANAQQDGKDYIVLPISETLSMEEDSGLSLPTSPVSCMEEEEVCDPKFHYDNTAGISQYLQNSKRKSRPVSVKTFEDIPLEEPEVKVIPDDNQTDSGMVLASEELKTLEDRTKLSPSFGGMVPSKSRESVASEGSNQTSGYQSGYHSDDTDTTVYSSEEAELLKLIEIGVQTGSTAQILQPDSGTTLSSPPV

IC50 [nM]	Binder
1100	PYAGRGDSVVYGLGGGPGAARGRRAARGRR [ST100,033]
430	YDGRGDSVVYGLKKKAARGRRAARGRR [ST100,032]
